Data as given in US7786356B2, “Method for the production of calendic acid, a fatty acid containing delta 8,10,12 conjugated double bonds and related fatty acids having a modification at the delta 9 position” (E.I. du Pont de Nemours and Company, priority 1999, dated 2010).

System: tobacco callus
Assay: Expression of CalFad2-1 in tobacco callus, GC/GC-MS of fatty acid methyl esters
Assay type: cell-based, Nicotiana tabacum cv. Xanthi
Details: stably transformed tobacco callus, 35S promoter
Source text: To characterize the activity of the CalFad2-1 in transgenic plant cells, the cDNA (ecs1c.pk009.n14) encoding this enzyme was expressed in tobacco callus with the gene under control of the cauliflower mosaic virus 35S promoter. The open-reading frame of the cDNA for CalFad2-1 was amplified by PCR to generate flanking […] restriction enzyme sites for cloning into the plant expression vector. The sequence of the sense oligonucleotide used in the amplification reaction was 5′-tttgagctc[…]-3′ (SEQ ID NO:16), and the sequence of the antisense oligonucleotide was 5′-tttggatcc[…]-3′ (SEQ ID NO: 17) [Note: the bases in lower case contain the added restriction sites, which are underlined, and flanking sequence to facilitate restriction enzyme digestion]. The design of the PCR primers was based on the sequence of the CalFad2-1 cDNA shown in SEQ ID NO:1. […]
Kanamycin-resistant tobacco callus that resulted from the transformation was examined for the presence of calendic acid arising from the activity of CalFad2-1. […] The recovered fatty acid methyl esters were then analyzed using a Hewlett-Packard 6890 chromatograph fitted with an Omegawax 320 column (30 m×0.32 mm inner diameter; Supelco). […] Fatty acid methyl prepared from the transgenic tobacco callus was analyzed with an HP6890 interfaced with a HP5973 (Hewlett-Packard) mass selective detector. […]

B1: CalFad2-1: Calendula officinalis fatty acid modifying enzyme (cDNA SEQ ID NO:1, protein SEQ ID NO:2) forming conjugated double bonds at delta-9 position (protein, listed as Calendula officinalis)
chain: MGKGASNKKVLERVPITKPPFEYNDLKKAVPPHCFSRPLFRSFYFLLHDIIVTCILFYVASNYIPMLPGFLSYIVWPVYWISQGVFLGRLWMIGHECGHHSFSNYRWVDDSVGFLIHTATLTPYFSFKYSHRNHHAHTNSMEYDEVHIPKRKSEALDLYFEFLGNNPMGLMITMLCKLTFGYAAYIMFNYTGKKHKSGGLASHFYPQSPLFNDSERNHVLFSDVGICIVLYACYRIVMVTGAMSAFYVYGIPWVIMSAILFAATYLQHTHPSIPHYDTTEWNWLRGALSTIDRDLGFFNMNKTHYHVIHHLFPVIPEYHAQEATEAIKPILGQYYKYDGTPFLKALWREMKDCIYVESDQGQKKQGIYWFKNKI
- methyl calendic acid, amount of the total fatty acids: up to 11.4 % of the total fatty acids
